Data as given in patent US20220112288A1 (published 2022).

Columns and labels:
human CD4 on human PBMCs = target: T1, human CD4 on human PBMCs (human, UniProt P01730 26-458); assay: FACS, clonal hybridoma supernatant on human PBMCs
T1 construct: whole, on cells; the CD4-positive gate was set with the control antibodies OKT4 and RPA-T4; also called hCD4

[1] = target: T2, Recombinant human CD4 (R&D Systems, Cat. 10327-CD) (human, UniProt P01730 26-390, limits assumed); assay: BLI (Octet Red384), non-clonal supernatant on AMC sensor, 100 nM human CD4
T2 construct: Bought soluble recombinant protein used as analyte at 100 nM; also called huCD4

[2] = target: T2, Recombinant human CD4 (R&D Systems, …); assay: BLI (Octet Red384), non-clonal supernatant on AMC sensor, 100 nM human CD4, 1:1 local fit;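 further: hybridoma antibodies captured from supernatant, single CD4 concentration as analyte, association and dissociation phases fitted together, giving single-point kinetic estimates per supernatant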

Binder | % CD4 Stain (human CD4 on human PBMCs) [%] | gMFI of CD4+ (human CD4 on human PBMCs) [gMFI] | Response [1] | Kd [2] [nM] | koff [2] [s⁻¹] | kon [2] [M⁻¹ s⁻¹]
75110_14G10A (antibody, V domains shown, Tested as clonal hybridoma supernatant from AlivaMab Mouse Kappa mice: human variable regions, human kappa, mouse Fc) VH: EVQLVESGGGLVKPGGSLRLSCAASGFTFSSYSMNWVRQAPGKGLEWVSFISSSSSYIYYADSVKGRFTISRDNAKNSLYLQMNSLRAEDTAVYYCARERGDDYGDYEGAFDIWGQGTMVTVSS VL: not shown | 31.1 | 241000 | – | – | – | –
75110_14I16A (antibody, V domains shown, Tested as clonal hybridoma supernatant from AlivaMab Mouse Kappa mice: human variable regions, human kappa, mouse Fc; also called 75110_14116A) VH: QVQLQESGPGLVKPSETLSLTCTVSNGSISSYYWSWIRQSAGKGLEWIGRIYTSGSTNYNPSLKSRVTMLVDTSKNQFSLKLSSVTAADTAVYYCARDREDYYYYGMDVWGQGTTVTVSS VL: DIQMTQSPSSLSASVGDRVTITCQASHDISNYLNWYQQKPGKAPKLLLYYASNLETGVPSRFSGSGSGTDFTFTITSLQPEDIGTYSCQQYDNLPLTFGGGTKVEIK | 33.2 | 298000 | – | – | – | –
75110_11D03A (antibody, V domains shown, Tested as clonal hybridoma supernatant from AlivaMab Mouse Kappa mice: human variable regions, human kappa, mouse Fc) VH: EVQLVESGGGLVQPGGSLRLSCAASGFTFSSYWMSWVRQAPGKGLEWVANINQDGNEKYYVDSVKGRFTISRDNAKNSLFLQMNSLRAEDTAVYYCAREGGQWLALDYWGQGALVTVSS VL: DIQMTQSPSSVSASVGDRVTITCRASQGISSWLAWYQQKPGKAPKFLISGASSLQSGVPSRFSGSGSGTDFTLTISSLQPEDFATYYCQQANSFPWTFGQGTKVEIK | 30.1 | 217000 | – | – | – | –
75110_13P22A (antibody, V domains shown, Tested as clonal hybridoma supernatant from AlivaMab Mouse Kappa mice: human variable regions, human kappa, mouse Fc) VH: QVQLQQWGAGLLKPSETLSLTCAAYGGSFSGYYWSWIRQSPGKGLEWIGEINQSGNTNYNPSLKSRVTISADTSKNQFSLKLSSVTAADTAVYYCARVLNWFDYWGQGILVTVSS VL: DIQMTQSPSSVSASVGDRVTITCRASQGISDWLAWYQQKSGKAPDLLIFAASSLQSGVPSRFSGSGSGTDFTLTISSLQPEDFATYYCQQANSFPYTFGQGTKLEIK | 37.5 | 185000 | – | – | – | –
75110_12H17A (antibody, V domains shown, Tested as clonal hybridoma supernatant from AlivaMab Mouse Kappa mice: human variable regions, human kappa, mouse Fc) VH: EVQLVESGGGLVQPGGSLRLSCAASGFTFSDYWMSWVRQAPGKGLEWVANIKEDGNEKYYVDSVKGRFTISRDNAKNSLFLQMNSLRAEDTAVYYCAREGGQWLALDYWGQGALVTVSS VL: DIQMTQSPSSVSASVGDRVTITCRASQGISSWLAWYQQKPGKAPKFLISGASSLQSGVPSRFTGSGSGTDFTLTISSLQPEDFATYYCQQANSFPWTFGQGTKVEIK | 37.3 | 197000 | – | – | – | –
75110_12H19A (antibody, V domains shown, Tested as clonal hybridoma supernatant from AlivaMab Mouse Kappa mice: human variable regions, human kappa, mouse Fc) VH: EVQLVESGGGLVQPGGSLRLSCAASGFTFSSYWMSWVRQAPGQGLEWVANINEDGNEKYHVDSVKGRLTISRDNAKNSLYLQMNSLRGVDTAVYFCAREGGQWLALDYWGQGALVTVSS VL: DIQMTQSPSSVSASVGDRVSITCRASQGISSWLAWYQQKPGKAPKLLIYGASGLQSGVPSRFSGSGSGTDFTLTISSLQPEDFATYYCQQANSFPWTFGQGTKVEIK | 36.8 | 284000 | – | – | – | –
75110_12C19A (antibody, V domains shown, Tested as clonal hybridoma supernatant from AlivaMab Mouse Kappa mice: human variable regions, human kappa, mouse Fc) VH: EVQLVESGGGLVQPGGSLRLSCAASGFTFSSYWMSWVRQAPGKGLEWVANIKEDGSDKYYVDSVKGRFTISRDNAKNSLYLQMNSLRAEDTAVHYCVREGGQWLALDYWGQGTLVTVSS VL: DIQMTQSPSSVSGSVGDRVTITCRASQGISSWLAWYQQKPGKAPKLLIYGASSLQSGVPSRFSGSGSGTDFTLTISSLQPEDFVTYYCQQANSFPWTFGQGTKVEIK | 24.4 | 56500 | – | – | – | –
75110_02I18A (antibody, V domains shown, Non-clonal AlivaMab Mouse Kappa hybridoma supernatant, captured by anti-mouse IgG Fc (human V regions, mouse Fc)) VH: EVQVVESGGGLVQPGGSLRLSCAASGFTFSSYDMHWVRQATGKGLEWVSTIGTAGDTYYPGSVKGRFTISRENAKNSLYLQMNSLRAGDTAVYYCARGGYYYYGMDVWGQGTTVTVSS VL: EIVLTQSPGTLSLSPGERATLSCRASQSVSSSYLAWYQQKPGQSPRLLIHGASSRATGIPDRVSGSGSGTDFTLTISRLEPEDFAVYYCQQYGSSPFTFGPGTKVDIK | – | – | 0.16 | 9 | 0.0033 | 370000
75110_14H13A (antibody, V domains shown, Tested as clonal hybridoma supernatant from AlivaMab Mouse Kappa mice: human variable regions, human kappa, mouse Fc) VH: EVQLVESGGGLVQPGGSLRLSCAASGFTFSNYDMHWVRQATGKGLEWVSTIGTAGDTYYPGSVKGRFTISRKNAKNSLYLQMISLRAGDTAVYYCARGGDYYYGMDVWGQGTTVTVSS VL: not shown | 35.3 | 160000 | – | – | – | –
75110_10O16A (antibody, V domains shown, Tested as clonal hybridoma supernatant from AlivaMab Mouse Kappa mice: human variable regions, human kappa, mouse Fc (detected with anti-mouse Fc gamma); also called 75110_10016A) VH: EVQLVESGGGLVQPGGSLRLSCAASGFTFSNSDMHWVRQATGKGLEWVSTIGTAGDTYYPGSVKGRFTISRENAKNSLYLQMNSLRAGDTAVYYCARGGLYYYGMDVWGQGTTVTVSS VL: ENVLTQSPGTLSLSPGERATLSCRASQSVSSSYLAWYQQKPGQAPRLLIYGASSRATGIPDRFSGSGSGTDFTLTISRLEPEDFAVYYCHQFGSSPFTFGPGTKVDIK | 37.2 | 133000 | – | – | – | –
75110_05F19A (antibody, V domains shown, Non-clonal AlivaMab Mouse Kappa hybridoma supernatant, captured by anti-mouse IgG Fc (human V regions, mouse Fc)) VH: EVQLVESGGGLVQPGGSLRLSCAASGFTFSNYDVHWVRQPTGKGLEWVSTIGTAGDTYYPGSVKGRFTISRENAKNSLYLQMNSLRAGDTAVYYCARGGYDYYGLDVWGQGTTVTVSS VL: not shown | – | – | 0.18 | 0.032 | 4.4e-06 | 140000
75110_13C07A (antibody, V domains shown, Tested as clonal hybridoma supernatant from AlivaMab Mouse Kappa mice: human variable regions, human kappa, mouse Fc) VH: EVQLVESGGVLVQPGGSLRLSCAASGFTFSNYDMHWVRQATGKGLEWVSTIGTAGDTYYPGSVKGRFTLSRENAKNSLYLQMHSLRAGDTAVYYCARGAYGYYGMDVWGQGTTVTVSS VL: not shown | 37.5 | 56000 | – | – | – | –
75110_08K12A (antibody, V domains shown, Non-clonal AlivaMab Mouse Kappa hybridoma supernatant, captured by anti-mouse IgG Fc (human V regions, mouse Fc)) VH: EVQLVESGGGLVQPGGSLRLSCAASGFTFSSYDMHWVRQATGKGLEWVSTIGTAGDTYYPGSVKGRFTISRENAENSLYLQMNSLRAGDTALYYCARGDYYYYGMDVWGQGTTVTVSS VL: EIVLTQSPGTLSLSPGERATLSCRASQSVSSTYLAWYQQKPGQAPRLLIYGASNRATGIPDRFSGSGSGTDFTLTISRLEPEDFAVYYCQQFGTSPFTFGPGTKVDIK | – | – | 0.11 | 4.5 | 0.0031 | 700000
75110_12K21A (antibody, V domains shown, Tested as clonal hybridoma supernatant from AlivaMab Mouse Kappa mice: human variable regions, human kappa, mouse Fc) VH: QVQLQQWGAGLLKPSETLSLTCAVSGGSFSGYYWSWIRQPPGKGLEWIGEINHSGSTNCNPSLKSRVTISVDTSNNQFSLKLSSVTAADTAVYYCARVLNYFDYWGQGTLVTVSS VL: DIQMTQSPSSVSASVGDRVTITCRASPDIANWLAWYQQKPGKAPELLIYAASSLQSGVPSRFSGSGSGTDFTLTISSLQPEDFATYFCQQANSFPLTFGGGTKVESK | 37.2 | 147000 | – | – | – | –
75110_13P21A (antibody, V domains shown, Tested as clonal hybridoma supernatant from AlivaMab Mouse Kappa mice: human variable regions, human kappa, mouse Fc) VH: QVQLQQWGAGLLKPSETLSLTCAVSGGSFSGYYWSWIRQPPGKGLEWIGEINHSGSTNCNPSLKSRVTISVDTSNNQFSLKLSSVTAADTAVYYCARVLNYFDYWGQGTLVTVSS VL: DIQMTQSPSSVSASVGDRVTITCRASPDIANWLAWYQQKPGKAPELLIYAASSLQSGVPSRFSGSGSGTDFTLTISSLQPEDFATYFCQQANSFPLTFGGGTKVESK | 27.2 | 31800 | – | – | – | –
75110_13C13A (antibody, V domains shown, Tested as clonal hybridoma supernatant from AlivaMab Mouse Kappa mice: human variable regions, human kappa, mouse Fc) VH: QVQLQQWGAGLLKPSETLSLTCAVSGGSFSGYYWSWIRQPPGKGLEWIGEINHSGSTNCNPSLKSRVTISVDTSKNQFSLKLSSVTAADTAMYYCARVLNFFDYWGQGTLVTVSS VL: DIQMTQTPSSVSASVGDRVTITCRASPGISNWLAWYQQKPGKAPELLIYAASSLQSGVPSRFSGSGSGTDFTLTISSLQPEDFATYFCQQANSFPLTFGGGTKVESK | 28.6 | 123000 | – | – | – | –
75110_14N19A (antibody, V domains shown, Tested as clonal hybridoma supernatant from AlivaMab Mouse Kappa mice: human variable regions, human kappa, mouse Fc) VH: QVQLQESGPGLVKPSETLSLTCTVSGGSISRYYWSWIRQPAGKGLEWIGRICTSENPNYNPALKSRVTMSVDTSKNQFSLKLSSVTAADTAVYYCARELERLNYYGMDVWGQGTTVTVSS VL: DIQMTQFPSSLSASVGDRVTITCQASQDISNYLNWYQQKPGKAPKLLIYDASNLESGVPSRFSGRGSGTDFTFTISSLQPEDFATFYCQQYDTLPITFGQGTRLEIK | 32.5 | 265000 | – | – | – | –
75110_01L08A (antibody, V domains shown, Non-clonal AlivaMab Mouse Kappa hybridoma supernatant, captured by anti-mouse IgG Fc (human V regions, mouse Fc)) VH: QVQLQESGPGLVKPSETLSLTCTVSGGSISHYYWSWIRQPPGKGLEWIGYIHYSGTTNYNPSLKSRVTISVDTSKNQLSLKLRSVTAADTAVYYCARDQGFSSGGMDVWGQGTTVTVSS VL: not shown | – | – | 0.09 | 4.1 | 0.00037 | 91000
75110_14P08A (antibody, V domains shown, Tested as clonal hybridoma supernatant from AlivaMab Mouse Kappa mice: human variable regions, human kappa, mouse Fc) VH: QVQLQESGPGLVKSSETLSLTCTDSGDSIRSYYWNWIRQPAGKGLEWIGRIYASGSTNYNPSLKSRVIMSADTSKNRFSLKLSSVTAADTAVYYCARDGGVGDSLDYWGQGTLVTVSS VL: DIVMTQTPLSLPVTPGEPASISCRSSQSLLDSDDGNTYLDWYLQKPGQSPQLLIYTLSYRASGVPDRFSGSGSGTDFTLKISRVEAEDVGVYYCMQRIEFPFTFGPGTKVDIK | 28.3 | 58500 | – | – | – | –
